# Measurements as given in patent publication US12134788B2, “Engineered prephenate dehydrogenases and arogenate dehydrogenases and methods of using the same” (Wisconsin Alumni Research Foundation, priority 2017, dated 2024).
# Key:
# Conditions in all cases: other: 0.5 mM NADP^+, pH 7.6, 37° C.
# [1] = substrate: N[C@@H](CC1(C(=O)O)C=CC(O)C=C1)C(=O)O; test: ADH and PDH assay: steady-state kinetics and Tyr inhibition, GmncADH wild type; format: biochemical, Glycine max (soybean)
# Procedure: (§1) Kinetic parameters of purified recombinant proteins were determined from assays conducted at varying arogenate (19.5 μM-5 mM) and prephenate concentration (23.4 μM-6 mM). Standard assay conditions were 25 mM HEPES pH 7.6, 50 mM KCl and 10% (v/v) ethylene glycol, and 0.5 mM NADP^+ with varied substrate, concentrations. Reactions were initiated by addition of enzyme and incubated at 37° C. monitored every 10-15 seconds at […] using a microplate reader (Tecan Genios). Kinetic parameters were determined by fitting initial velocity data to the Michaelis-Menten equation using the Origin software (OriginLab).
# (§2) Arogenate was prepared by enzymatic conversion of prephenate (Sigma-Aldrich) as previously reported^56. For Tyr inhibition assays, Tyr was dissolved in a slightly basic solution (0.025 N NaOH) due to solubility issues, thus the concentration of lysis buffer was increased to 500 mM HEPES final concentration to buffer against the changes by addition of Tyr in the reaction. Reactions containing varying amounts of Tyr (10 μM-8 mM) with 0.5 mM NADP^+ and either 1 mM arogenate or 0.8 mM prephenate were monitored as above.
# [2] = substrate: N[C@@H](CC1(C(=O)O)C=CC(O)C=C1)C(=O)O; test: ADH and PDH assay: steady-state kinetics and Tyr inhibition, GmncADH D218N; format: biochemical, Glycine max (soybean)
# Procedure: as §1, §2
# [3] = substrate: O=C(O)C(=O)CC1(C(=O)O)C=CC(O)C=C1; test: as above; format: biochemical, Glycine max (soybean)
# Procedure: as §1, §2
# [4] = substrate: N[C@@H](CC1(C(=O)O)C=CC(O)C=C1)C(=O)O; test: ADH and PDH assay: steady-state kinetics and Tyr inhibition, GmPDH1 wild type; format: biochemical, Glycine max (soybean)
# Procedure: as §1
# as §2, with “Reactions containing varying amounts of Tyr (10 μM-8 mM) with 0.5 mM NADP^+ and either 1 mM arogenate or 0.8 mM prephenate were monitored as above.” left out
# [5] = substrate: O=C(O)C(=O)CC1(C(=O)O)C=CC(O)C=C1; test: as above; format: biochemical, Glycine max (soybean)
# Procedure: as §1
# as §2, with “Reactions containing varying amounts of Tyr (10 μM-8 mM) with 0.5 mM NADP^+ and either 1 mM arogenate or 0.8 mM prephenate were monitored as above.” left out
# [6] = substrate: N[C@@H](CC1(C(=O)O)C=CC(O)C=C1)C(=O)O; test: ADH and PDH assay: steady-state kinetics and Tyr inhibition, GmPDH1 M219T/N222D; format: biochemical, Glycine max (soybean)
# Procedure: as §1, §2
# [7] = substrate: O=C(O)C(=O)CC1(C(=O)O)C=CC(O)C=C1; test: as above; format: biochemical, Glycine max (soybean)
# Procedure: as §1, §2
# [8] = substrate: O=C(O)C(=O)CC1(C(=O)O)C=CC(O)C=C1; test: ADH and PDH assay: steady-state kinetics and Tyr inhibition, GmPDH1 N222A; format: biochemical, Glycine max (soybean)
# Procedure: as §1, §2
# [9] = substrate: N[C@@H](CC1(C(=O)O)C=CC(O)C=C1)C(=O)O; test: ADH and PDH assay: steady-state kinetics and Tyr inhibition, MtPDH wild type; format: biochemical, Medicago truncatula
# Procedure: as §1
# as §2, with “Reactions containing varying amounts of Tyr (10 μM-8 mM) with 0.5 mM NADP^+ and either 1 mM arogenate or 0.8 mM prephenate were monitored as above.” left out
# [10] = substrate: O=C(O)C(=O)CC1(C(=O)O)C=CC(O)C=C1; test: as above; format: biochemical, Medicago truncatula
# Procedure: as §1
# as §2, with “Reactions containing varying amounts of Tyr (10 μM-8 mM) with 0.5 mM NADP^+ and either 1 mM arogenate or 0.8 mM prephenate were monitored as above.” left out
# [11] = substrate: N[C@@H](CC1(C(=O)O)C=CC(O)C=C1)C(=O)O; test: ADH and PDH assay: steady-state kinetics and Tyr inhibition, MtPDH C220D; format: biochemical, Medicago truncatula
# Procedure: as §1, §2
# [12] = substrate: O=C(O)C(=O)CC1(C(=O)O)C=CC(O)C=C1; test: as above; format: biochemical, Medicago truncatula
# Procedure: as §1, §2
# [13] = substrate: N[C@@H](CC1(C(=O)O)C=CC(O)C=C1)C(=O)O; test: ADH and PDH assay: steady-state kinetics and Tyr inhibition, MtncADH wild type; format: biochemical, Medicago truncatula
# Procedure: as §1, §2
# [14] = substrate: O=C(O)C(=O)CC1(C(=O)O)C=CC(O)C=C1; test: as above; format: biochemical, Medicago truncatula
# Procedure: as §1, §2
# [15] = substrate: N[C@@H](CC1(C(=O)O)C=CC(O)C=C1)C(=O)O; test: ADH and PDH assay: steady-state kinetics and Tyr inhibition, MtncADH D220C; format: biochemical, Medicago truncatula
# Procedure: as §1, §2
# [16] = substrate: O=C(O)C(=O)CC1(C(=O)O)C=CC(O)C=C1; test: as above; format: biochemical, Medicago truncatula
# Procedure: as §1, §2
# [17] = substrate: N[C@@H](CC1(C(=O)O)C=CC(O)C=C1)C(=O)O; test: ADH and PDH assay: steady-state kinetics and Tyr inhibition, SolyncADH wild type; format: biochemical, Solanum lycopersicum (tomato)
# Procedure: as §1, §2
protein,measurement,setting,value
"GmncADH (Gm14g05990), soybean (Glycine max) noncanonical arogenate dehydrogenase, wild type (Glycine max) (protein, wild type) MSTWSLKIGVVGFGSFGQFLAKTMIKQGHTLRATSRTDYSLLCLPMGIQFFRDVAAFLEADNDVILVCTSILSLSEVLSSMPLTCLKRSTLFVDVLSVKEHPRNLLIKVLPEESDILCTHPMFGPDSGKDGWQDLTFVYDKVRIRDEAICSSFLHIFASEGCRMLQMSCEEHDKIAAKSQFITHTIGRTLAEMDIKSTPIDTKGFHSLVQLKDTTIRDSFDLYSGLFLHNRFAVQELENLEHALHKVKEMLVQRKSEELGLEKTEC",Km,[1],410 ± 30 µM
same,kcat,[1],27.7 ± 1.1 s⁻¹
same,kcat/Km,[1],67600 M⁻¹ s⁻¹
"Glycine max GmncADH variant D218N (Glycine max; D218N) (protein, D218N by site-directed mutagenesis) MSTWSLKIGVVGFGSFGQFLAKTMIKQGHTLRATSRTDYSLLCLPMGIQFFRDVAAFLEADNDVILVCTSILSLSEVLSSMPLTCLKRSTLFVDVLSVKEHPRNLLIKVLPEESDILCTHPMFGPDSGKDGWQDLTFVYDKVRIRDEAICSSFLHIFASEGCRMLQMSCEEHDKIAAKSQFITHTIGRTLAEMDIKSTPIDTKGFHSLVQLKDTTIRNSFDLYSGLFLHNRFAVQELENLEHALHKVKEMLVQRKSEELGLEKTEC",Km,[2],740 ± 140 µM
same,kcat,[2],8.6 ± 0.2 s⁻¹
same,kcat/Km,[2],11600 M⁻¹ s⁻¹
same,Km,[3],1980 ± 50 µM
same,kcat,[3],11.5 ± 0.5 s⁻¹
same,kcat/Km,[3],5810 M⁻¹ s⁻¹
"GmPDH1 (Gm18g02650), soybean (Glycine max) prephenate dehydrogenase, wild type (Glycine max) (protein, homodimer) MSTSSSSQSLKIGIVGFGNFGQFLAKTMIKQGHTLTATSRSDYSELCLQMGIHFFRDVSAFLTADIDVIVLCTSILSLSEVVGSMPLTSLKRPTLFVDVLSVKEHPRELLLRELPEDSDILCTHPMFGPQTAKNGWTDHTFMYDKVRIRDEVICSNFIQIFATEGCKMVQMSCEEHDRAAAKSQFITHTIGRTLGEMDIQSTPIDTKGFETLVKLKETMMRNSFDLYSGLFVYNRFARQELENLEHALHKVKETLMIQRTNGEQGHKRTES",Km,[4],2590 ± 90 µM
same,kcat,[4],6.3 ± 0.7 s⁻¹
same,kcat/Km,[4],2430 M⁻¹ s⁻¹
same,Km,[5],90 ± 10 µM
same,kcat,[5],30.4 ± 0.7 s⁻¹
same,kcat/Km,[5],338000 M⁻¹ s⁻¹
Glycine max GmPDH1 variant M219T/N222D (Glycine max; M219T/N222D) (protein) MSTSSSSQSLKIGIVGFGNFGQFLAKTMIKQGHTLTATSRSDYSELCLQMGIHFFRDVSAFLTADIDVIVLCTSILSLSEVVGSMPLTSLKRPTLFVDVLSVKEHPRELLLRELPEDSDILCTHPMFGPQTAKNGWTDHTFMYDKVRIRDEVICSNFIQIFATEGCKMVQMSCEEHDRAAAKSQFITHTIGRTLGEMDIQSTPIDTKGFETLVKLKETTMRDSFDLYSGLFVYNRFARQELENLEHALHKVKETLMIQRTNGEQGHKRTES,Km,[6],630 ± 180 µM
same,kcat,[6],29 ± 4.4 s⁻¹
same,kcat/Km,[6],46000 M⁻¹ s⁻¹
same,Km,[7],1180 ± 120 µM
same,kcat,[7],2.5 ± 0.3 s⁻¹
same,kcat/Km,[7],2120 M⁻¹ s⁻¹
Glycine max GmPDH1 variant N222A (Glycine max; N222A) (protein) MSTSSSSQSLKIGIVGFGNFGQFLAKTMIKQGHTLTATSRSDYSELCLQMGIHFFRDVSAFLTADIDVIVLCTSILSLSEVVGSMPLTSLKRPTLFVDVLSVKEHPRELLLRELPEDSDILCTHPMFGPQTAKNGWTDHTFMYDKVRIRDEVICSNFIQIFATEGCKMVQMSCEEHDRAAAKSQFITHTIGRTLGEMDIQSTPIDTKGFETLVKLKETMMRASFDLYSGLFVYNRFARQELENLEHALHKVKETLMIQRTNGEQGHKRTES,Km,[8],190 ± 40 µM
same,kcat,[8],6.6 ± 0.3 s⁻¹
same,kcat/Km,[8],34700 M⁻¹ s⁻¹
"MtPDH (MtPDH1; Mt3g071980), Medicago truncatula prephenate dehydrogenase, wild type (Medicago truncatula) (protein) MSSSSKSLKIGIVGFGTFGQFLANTMIKQGHTLTATSRTDYSQLCDQMGIHFFRDITAFLDADMDVILLCTSISSLSEVVGSMPLACLKRPTLFVDVLSVKEHPKNLLLKVLPEESDILCTHPMFGPVSGKNGWQNLTFMFDKVRIKDEVTCSKFLQIFASEGCKMVEMSCEEHDKAAAKSQFITHTIGRTLAEMDIKSTPIDTKGFQTLVELKKPVMGCSFDLYSGLFVYNRFARQELENLEHALHKVKEMLVQRIDEGQNPERTES",Km,[9],940 ± 40 µM
same,kcat,[9],16.9 ± 1.1 s⁻¹
same,kcat/Km,[9],18000 M⁻¹ s⁻¹
same,Km,[10],50 ± 10 µM
same,kcat,[10],18.5 ± 3 s⁻¹
same,kcat/Km,[10],370000 M⁻¹ s⁻¹
"Medicago truncatula MtPDH variant C220D, SEQ ID NO: 1 (Medicago truncatula; C220D) (protein) MSSSSKSLKIGIVGFGTFGQFLANTMIKQGHTLTATSRTDYSQLCDQMGIHFFRDITAFLDADMDVILLCTSISSLSEVVGSMPLACLKRPTLFVDVLSVKEHPKNLLLKVLPEESDILCTHPMFGPVSGKNGWQNLTFMFDKVRIKDEVTCSKFLQIFASEGCKMVEMSCEEHDKAAAKSQFITHTIGRTLAEMDIKSTPIDTKGFQTLVELKKPVMGDSFDLYSGLFVYNRFARQELENLEHALHKVKEMLVQRIDEGQNPERTES",Km,[11],270 ± 10 µM
same,kcat,[11],46.8 ± 4.2 s⁻¹
same,kcat/Km,[11],173000 M⁻¹ s⁻¹
same,Km,[12],1530 ± 90 µM
same,kcat,[12],0.5 ± 0.1 s⁻¹
same,kcat/Km,[12],327 M⁻¹ s⁻¹
"MtncADH (Mt5g083530), Medicago truncatula noncanonical arogenate dehydrogenase, wild type (Medicago truncatula) (protein, wild type) MSNSPSLKIGIVGFGSFGQFLAKTMIKQGHTLTATSRTDYSHTCLQLGIQFFRDVGTFIEANNDVILICTSIMSFTKVLSSMPLACLKKPTTLFVDVLSVKEHPREVLLRVLPEESDILCTHPMFGPESGKNGWKDLNFMYDKVRIHDEATCSNFLHIFASEGCKMLQMSCEEHDKIAAKSQFITHTIGRTLAEMDIESTPIDTKGFQTLTQLKNTTMRDSFDLYSGLFVHNRFAKQELENLQRALDRVKEMLVQRMREELGPEKD",Km,[13],140 ± 20 µM
same,kcat,[13],39 ± 7.6 s⁻¹
same,kcat/Km,[13],279000 M⁻¹ s⁻¹
same,Km,[14],6690 ± 270 µM
same,kcat,[14],0.3 ± 0.1 s⁻¹
same,kcat/Km,[14],45 M⁻¹ s⁻¹
"Medicago truncatula MtncADH variant D220C, SEQ ID NO: 10 (Medicago truncatula; D220C) (protein, D220C by site-directed mutagenesis) MSNSPSLKIGIVGFGSFGQFLAKTMIKQGHTLTATSRTDYSHTCLQLGIQFFRDVGTFIEANNDVILICTSIMSFTKVLSSMPLACLKKPTTLFVDVLSVKEHPREVLLRVLPEESDILCTHPMFGPESGKNGWKDLNFMYDKVRIHDEATCSNFLHIFASEGCKMLQMSCEEHDKIAAKSQFITHTIGRTLAEMDIESTPIDTKGFQTLTQLKNTTMRCSFDLYSGLFVHNRFAKQELENLQRALDRVKEMLVQRMREELGPEKD",Km,[15],870 ± 30 µM
same,kcat,[15],7 ± 0.8 s⁻¹
same,kcat/Km,[15],8050 M⁻¹ s⁻¹
same,Km,[16],740 ± 30 µM
same,kcat,[16],10.1 ± 0.5 s⁻¹
same,kcat/Km,[16],13600 M⁻¹ s⁻¹
"SolyncADH (Slycopersicum06g050630), tomato noncanonical arogenate dehydrogenase, wild type (Solanum lycopersicum) (protein, wild type) MSSSSSCQPKTLRIGIIGFGPFAQFLAKTMMKQGHCIHVTSRSDYSELCTDLGILFFRDMGAFLESDNEVIMISTSILSLSQVVESIPFNCLKRPTLFVDVLSVKEHPKDVLLRMMPRECDLLCTHPMFGPESGKDGWEDLTFMYDMVRIRDQPLCSSFLHIFSSEGCKMLEMTCEKHDRLAAQSQFLTHTIGRILSEMEVEPTPIDTKGFQKLVQVKESSVKDSFDLFSGLFIHNRFARQQMKNLEVALEKTKEKLQERSKELQDPIISKF",Km,[17],450 ± 50 µM
same,kcat,[17],15.9 ± 2.1 s⁻¹
same,kcat/Km,[17],35300 M⁻¹ s⁻¹
